Data from the domain aggregation screens of Martell et al. (2025).

Experiment: soluble fraction after stress (log2 fold change); higher = more stays soluble; pooled small domains, quantitative proteomics
Conditions: stress: 75 degC
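Also: 20 min heating vs room temperature control held 20 min.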

Row | Sequence | soluble fraction (log2)
1 | HMTSGTLTLTQDTPVYTEPNKDGGVAYVQPQGDIQWDKYIFANGDNWYSFVQKNRDQEVRFYIAYSDVG | -0.561
2 | HMTSHSFVITEEVGQRLDRFISDQLDTVSRTMIQKHIRSGAVVVNGKQVKSNYLLVLNDRINIALK | -2.75
3 | HMTSISMDEKVVLGWHQVTTGAANSGMDKVVSNTSGLNVISPTWFKLSDNKGNYISIASKDYVDAAHKKGL | -0.108
4 | HMTSKTLSADGGENTRLDKFLSNHLPEISRTKIQKMINDGLVYVNQNYAKASLVLDGTELISYTIPD | -0.0211
5 | HMTSLTDDELSVVMLVREREISFDEITSETGFDAARLNSVLTMLKIKGIIDETTGKHYRISGGA | -1.01
6 | HMTSLVRTSNLDGFEPLARSIGVDPVMELMRFGIPPDALIRENMFISFIGFIRLLEHTALAG | 0.364
7 | HMTSMYYLNKAVKEGNAKAIRQLLSAGININVRKRETSTPLDFAIKYKQTEIADLLRKHGGKTAEELKAEE | -0.668
8 | HMTSNEKARNAASAERRADIVAAARELYEEQGLSKTSVQDITNRMGVARSLFYHYFPDKEAVTSAVLDDYV | 0.0232
9 | HMTSPELIELGERIRKRRQEMNLSQEALAEKAGISINTVSRVEGGQTAMSIEIFRKMIEILETDANGL | -0.586
10 | HMTSRIHDYWTSPGQPGYAKIGWGTAGDFRRAKALIGEKIAANSPEDMRYLNQIIAQWHFDALGYWPGDH | -3
11 | HMTSRLLTPRQRYVFDTAMKEGFYDVPRRITLTELASVLDVAKSTLSAQLHRIESTVHHAYADDIRRRS | -2.55
12 | HMTSSQLNIEELERRMMMHLEQNGFITRSIYTNLTGRLKWKATEDLKIFVEKGLIRKMGRGNQMYYVKVE | -1.74
13 | HMTSSQRDSILEFLKTRKDHPTADVVYMNVRKSFPNISLGTVYRNLTLLSDIGQIAKIRVGDGVDHFDADT | -0.505
14 | HMTSSSGTITADWLNVRSGAGTNFSRLGSIAGGTRLTVISVHGEWYKITASFEGEIRTGYVHSQYVQMDGE | -3.87
15 | HMTSTEQQIEQFIGTLVSLGGSAGNQRLLEALGWQDSIYQRVKQQLIDDGRIRPGRGRGGSVVLAE | -0.576
16 | HMTSVAGIERFLASGAIKGMGAATAKLIVEHFGADTLNMLDMYPERLTEIKGIGPKKATAIIEGYRELS | -0.897
17 | HMTSVMAWRLITPIPQHGIIRSSQVQLQKHAPNSLKFLDVDSSPVGKQVKHGIAAGHWLSKDDFTE | -1.05
18 | HMTTAASIGRLVRDARKQRGLTQHELASLLSTSQSAIHRIESGNQNLSLEMINRIAQALESPLIVPGG | -0.377
19 | HMTTIRQQAEVPLSAAGRRFDQALAEMFPAYSRSRLSGWIKAGAATLDGAPAAPRQLLRGGERVELDVELE | -0.166
20 | HMTTKGGLVRDTVLNEFRDSEFTRREVELVLNGVASERTIRGALSEMVERGELTQVNFGISTRYRLNQ | -0.563
21 | HMTTLEGIEKYLGSGMIRGIGPAYAGRLTKVFGEAVFDVIEQSPERLREVEGIGPKRVSRIVSGWAEQ | -0.31
22 | HMTTLLNHLKGTRLEAGLSQQALARLAGISRQAYSALESGSSNPSTEVALRLARALKTSVDHLFSLPE | -1.09
23 | HMTTQVPYTAKLININGGSVVNFRKEPGMNTTIIRTYPVGTEVTVLETGVNWSKVEIDGVTGYVSSYFL | -2.33
24 | HMTTRLLTPRQRQVFDIAIREGFYDSPRRISLTELADLLGVAKSTLSVQLQRVESTIVHTFSEEIRRRS | -2.66
25 | HMTTRQREALLDYLSRHPDQPLTVREIAAGVEPDGVSLSAVYRNLAELEAAGLIRRESRPGSREAVVQYV | -0.0192
26 | HMTTTTTYITNTDAVNIRQQATTSSTSLGKLAKNTILSVKKKSGDWYQITYKKQTAYIHASLVDKKTAKVT | -1.62

Row | Sequence | soluble fraction (log2)
27 | HMTTVDYDALRAAILQQVVSEDTTPALTTENTEIKYKFKFGLDTWVDLDGGKIAPAVSAKSYEIQISFKG | 0.185
28 | HMTTYVNGSWSGWNGSTVVKLTDGSVWRQAEYHYEYHYAYRPQARLERDELFVEGMSRGVRV | -0.0587
29 | HMTVADMQQKANVKRRNSNSHEAILDATVKLLGSSGYIDFSIEKVASQAGVGKQTIYRWWPSRADLVLEVW | -0.506
30 | HMTVAEVEDRMEASRVRQALDAVGEPHRTTIALAYFTGLTHTEIAQRMGVPLGTVKSRIRDGMAKMRTHLG | -1.24
31 | HMTVDHDERRSMILEAFMRLAAREGLHAVSLRGVAAEAGISLRLVQYYFETKARLMQSGLTALET | -0.141
32 | HMTVKKLIINEDNSGRRIDNYLLSIFNSVPRSKIYNIIRKGEVRVNSSRIKPSYRLEEGDQVRIPPNLDYT | -1.05
33 | HMTVKRNILQELLKTAFKHPEDFRPSKTFYGETGIGQKRFWALYYGHKAVTQKEYYAVADYLG | -0.0737
34 | HMTVLDYNENVLSKVMNAAEINDSDKEAFIAFAKDYNSDDNLYLKKEELETAAGAWNARNVE | 0.2
35 | HMTVLTDEIKVILISYIKENDFKKKHGNRKMMMTAQDMYDELVEKGYKISYPTVTQYVQKYRENETT | -1.63
36 | HMTVMTGSQRRKKILELMRDAKEPLSGGALGKETGVSRHVVVQDIALLRTQGYPIVATARGYIINE | -1.32
37 | HMTVRLSVSADGKFFWNESQVSEEELFPRLQAEAAKEPQPDLHIRGDKNVRYEFVAQAMAAAQRAGVRKI | -0.797
38 | HMTVSADQTAADAVIKLINAIGTVSENSGSAISAARSGYDALTDTQKKLVTNYNKLTQAEQVFSSLPS | 0.336
39 | HMTVSGNIAGDYKDYLPQKTDVINGMTVTYRMVDDAVYLASWKHAGQNHVFLFNDPVSVERAREMI | -0.556
40 | HMTVSIDSLFDKFEDLQEQGLGDKTEEGQELRGLIRAFIEQEHLSVRITRSTSNQELLDMIEEAMQ | -1.25
41 | HMTVSRRYTENEMETALKAYLATHNFISRRDMQQEFALTIYSARKWLNHFVDVGLIERIGLKNAPIYKL | -0.0893
42 | HMTVTKYGKKILEIVSSSRSHMTAEEIFDALRQTYPTVVLATVYNNLNRLWQDDLIRKVSVEGMPDRYD | -1.28
43 | HMTVVPNIVNQPEAAGTNLLISSNLKPGNRAVQYSDTVKAGDIISQSPEPGAQATLGGKVDYVISQGPAPT | 0.174
44 | HMTWIAEIELRLMGNGAVTGAKIVKSTDLKDVDAAIYRAALEASPYPAPESGIGGRFTIKLKY | -0.037
45 | HMTYLIKFDENGRRSDTYVAEEKTQEQVTELLEKGFVLITEEDYQLLVGNVDGKEYIRNADGTYSEYT | 0.563
46 | HMTYMWTTDGVNLRSEPNTDSAVVTVLGVGTQVRMIGEEDGWVKVSFNDQEGYIRADFLTTE | -0.198
47 | HMTYSAFITARNKRIAEEYSVLLDSLNISNNVIYRLGSWVVEVNVSDHSRAIDEIYSYERSGRIDKV | -3.1
48 | HMTYYEGYYRKNQKGFGFVIVDGRDEDIYIDAKNMNGALNNDLVVVEELKGQNGKKTEGRVVKVLKKE | -0.17
49 | HMVADLSGVGDKDIIVDQFIYHEVLPKETIYSIVKSFNVTSEDLNKNNPFLRANGLRIGQVIRIPLKI | -1.27
50 | HMVAEPTYGRTTDVLNIRSGPSTDDERIGQLSRGAVVTILEEKDGWYRLQRGYISADYVTQISAEEASNS | -0.0612
51 | HMVAEPVYGKVTEGPLNVRSAPSTDSEKVDSFSTGKVLTILETLDGWYKVEEGYVSADYVTIIDAAEAASS | -0.162
52 | HMVAGHLSEKKGYYYAVLNYKDYTGKRKSKWVSTGLPVKGNKRRAEKILADIKRDFVPEEPKR | -0.96

Row | Sequence | soluble fraction (log2)
53 | HMVAGQDPVKRQQILDGAKRVFLGVGFDAASMNDITREAGVSKGTIYVYFGSKEELFGALIDR | -0.828
54 | HMVAMLDASYRGVMQTISTLLAQGNTERAYDEAVNARGQMSKQQWNNLANLIWERTGQKIDSGVSYK | 0.367
55 | HMVDEAQSLERNVLLTVLSRIGRDSRVVLTHDIAQRDNLRVGRHDGVVAVVDRLKGHPLFAHVTL | 0.163
56 | HMVDERMVTYINSLDKGNTPFLNELEKEALANYVPIIRREMQSFLKVLLQIKAPLRILEVGTAVGFSTILM | 0.0501
57 | HMVDGAHKQQAAVQALTPALKVLAAAPEGKKGQAIQALRAVLKQHGRWLDDATAQQVHEQLLAAGDAQGWQ | 0.478
58 | HMVDIGQSIRVELIREGKDSHQAVGYLRDGSMVVVNHGRKLIGSTVEVEITSIVPSSAGKVIFAEYLE | -2.67
59 | HMVDIQTGQKVRIHTSQFAGKIGNITALNVKSAELPNGIRTATASILMQSNENVMLPVSNFDIIE | -0.0419
60 | HMVDIVLDILKIVAEKQPGNQFSQSILMQYQERGGLSKKQLEGLYGKAKRIPEIPQNKLATLEAIILR | -1.84
61 | HMVDKNDLTAIDGIGPFLEKKLNDVGVFTYADIAGWDAAKIEEITQQISFFEGRIEKDDWVGQAQKLIDDQ | -0.124
62 | HMVDKSYIHNQQVASDTWTVQHNLGKYPAVSVADTGNNEVYGDVRHINENTVELKFSHPFSGVAFF | 0.61
63 | HMVDKTMYDRYAVDDYVRVIDGPLVGTEGRIIELDRETGNVKIEAVFFGRVTTADINFALIEKVD | -0.717
64 | HMVDLDIENYELEDILNLFRLQYNFVEADLKRAYRMALKLHPDKSGLDGEYFRFYMKAYKIVENIFNFRNR | -1.5
65 | HMVDSVIGSVGRVTVDIDNVEALGQVKLGGMEWSARSTSGDPIPAGTEVRVDRVEGVKVFVTPV | -0.117
66 | HMVDVEMLTTVSDHIEAKLLQGILENHGIPSYSVDEESGEYMRVYMGYSIFGEKIYVRASDLLAAQGYL | -2.23
67 | HMVDWTFPVLVKDVVMMGRYGHMGFLRIPGKKDFESVDNALAKVGMVEYAKQQIGELSGGQR | -0.019
68 | HMVDYSMEDSVWNNKKEHVNEWFDANPEHEGRRVIVDGLFAIGDAQPDLRKRHWSSISVVFADLDNSPIG | -0.327
69 | HMVEDPADNQKAADAVIKKISEIGEVTESSENLIKEARASYDALTDNQKELVTNYDVLVQAEAQLENIKD | 0.282
70 | HMVEEVDYGTFMRMIEEKNIGKVEVRAGEIVFTDKDEKQIYKTGAMEDATLTQRLYESGAEFSKDV | -0.0507
71 | HMVEGVSLVEIYVDENSKYNGKLLSEIPKKENTLVIMIQRGEQVIIPHGNIRLESGDMLVVSKTEI | -2.71
72 | HMVEKNALSEEIEGYVNKYGKDRSSLMPVLQAIQRKHSYINDFAQQEVARLLDIHPVEVFSVISFYSFLH | -2.21
73 | HMVEKRLFPQISDAGKRLDLFLAGALAISRTMVVKIIKDGGVLVNGKAAKASYRLAGDEELLVSYEEP | -3.48
74 | HMVEMPEVGVKVRIEVESHNGSTNFEGIVLHPASKGHLTLKLINGYNASYLIEEIRNLEIIDSS | -1.64
75 | HMVENATPEEREALNDIAMEAMGMVKDGKPTSAREFVQSQNLDNDQKILLWSLLDAPTRSALKTAEK | 0.373
76 | HMVEPIKAPMPGMVLKILVEPGQQIEKGQGVLILEAMKMENVLKSSAAATVKSIKVSEKSAVEKGAILVEL | -0.463
